Measurements: the supplement of paper PMC10065799, “High-throughput profiling of sequence recognition by tyrosine kinases and SH2 domains using bacterial peptide display” (eLife, 2023)

Experiments:
Fyn = Fyn (UniProt P06241); assay: phosphorylation enrichment, bacterial display (enrichment ratio); higher = better substrate or ligand; peptides without Tyr show the background
AncSZ = assay: as above
FGFR3 = FGFR3 (UniProt P22607); assay: as above
MERTK = MERTK (UniProt Q12866); assay: as above
c-Src = assay: as above
EPHB1 = EPHB1 (UniProt P54762); assay: as above
Jak2 = Jak2 (UniProt O60674); assay: as above
Fes = Fes (UniProt P07332); assay: as above
Hck = Hck (UniProt P08631); assay: as above
c-Abl (mouse) = assay: as above
FGFR1 = FGFR1 (UniProt P11362); assay: as above
EPHB2 = EPHB2 (UniProt P29323); assay: as above
Fer (mouse) = assay: as above
Grb2 SH2 = Grb2 SH2 (UniProt P62993); assay: SH2 binding enrichment of the phosphorylated peptide, bacterial display (enrichment ratio); higher = better substrate or ligand; peptides without Tyr show the background
SHP2-C SH2 = assay: as above
c-Src SH2 = assay: as above
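For SH2 binding enrichment of the phosphorylated peptide, bacterial display in this document: peptide library displayed on the E. coli surface as eCPX fusions, selected cells deep-sequenced, score is each peptide's frequency after selection divided by its frequency in the input.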
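For phosphorylation enrichment, bacterial display in this document: 11-residue human phosphosite peptides and single-mutation variants displayed on the E. coli surface, counted by deep sequencing, each peptide's frequency after selection divided by its frequency in the unselected input library; frequency after pTyr selection over input frequency; kinase dosed for 20-30% of maximal phosphorylation in three min.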

Hck, sequence (P08631 whole entry, looked up): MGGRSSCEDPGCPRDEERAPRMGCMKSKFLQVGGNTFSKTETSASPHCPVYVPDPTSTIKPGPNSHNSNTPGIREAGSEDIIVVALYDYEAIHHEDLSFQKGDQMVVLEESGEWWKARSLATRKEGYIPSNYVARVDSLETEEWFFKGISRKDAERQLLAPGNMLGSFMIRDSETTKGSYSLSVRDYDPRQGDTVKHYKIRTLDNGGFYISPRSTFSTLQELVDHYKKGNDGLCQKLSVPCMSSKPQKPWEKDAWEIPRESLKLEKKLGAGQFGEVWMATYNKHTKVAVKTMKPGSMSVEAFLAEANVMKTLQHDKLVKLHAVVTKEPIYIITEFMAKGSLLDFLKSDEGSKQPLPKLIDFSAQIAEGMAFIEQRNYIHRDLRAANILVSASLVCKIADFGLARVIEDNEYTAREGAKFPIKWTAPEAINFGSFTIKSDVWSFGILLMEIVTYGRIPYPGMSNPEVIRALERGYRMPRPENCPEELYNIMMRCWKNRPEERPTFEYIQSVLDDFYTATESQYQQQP
Fyn, sequence (P06241 whole entry, looked up): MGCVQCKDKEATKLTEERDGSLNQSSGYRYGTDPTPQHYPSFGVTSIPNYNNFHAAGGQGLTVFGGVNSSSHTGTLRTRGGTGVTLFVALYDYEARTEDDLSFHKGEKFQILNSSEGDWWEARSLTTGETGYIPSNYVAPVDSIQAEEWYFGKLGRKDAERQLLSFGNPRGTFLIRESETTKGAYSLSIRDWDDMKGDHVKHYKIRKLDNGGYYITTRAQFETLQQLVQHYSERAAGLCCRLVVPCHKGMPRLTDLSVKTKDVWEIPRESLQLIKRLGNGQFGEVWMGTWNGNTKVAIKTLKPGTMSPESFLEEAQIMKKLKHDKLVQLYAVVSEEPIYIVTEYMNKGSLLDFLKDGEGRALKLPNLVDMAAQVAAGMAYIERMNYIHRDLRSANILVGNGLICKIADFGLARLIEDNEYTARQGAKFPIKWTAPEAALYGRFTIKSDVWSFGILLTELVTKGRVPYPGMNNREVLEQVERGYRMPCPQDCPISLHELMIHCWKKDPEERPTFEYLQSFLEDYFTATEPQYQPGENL
EPHB2, sequence (P29323 whole entry, looked up): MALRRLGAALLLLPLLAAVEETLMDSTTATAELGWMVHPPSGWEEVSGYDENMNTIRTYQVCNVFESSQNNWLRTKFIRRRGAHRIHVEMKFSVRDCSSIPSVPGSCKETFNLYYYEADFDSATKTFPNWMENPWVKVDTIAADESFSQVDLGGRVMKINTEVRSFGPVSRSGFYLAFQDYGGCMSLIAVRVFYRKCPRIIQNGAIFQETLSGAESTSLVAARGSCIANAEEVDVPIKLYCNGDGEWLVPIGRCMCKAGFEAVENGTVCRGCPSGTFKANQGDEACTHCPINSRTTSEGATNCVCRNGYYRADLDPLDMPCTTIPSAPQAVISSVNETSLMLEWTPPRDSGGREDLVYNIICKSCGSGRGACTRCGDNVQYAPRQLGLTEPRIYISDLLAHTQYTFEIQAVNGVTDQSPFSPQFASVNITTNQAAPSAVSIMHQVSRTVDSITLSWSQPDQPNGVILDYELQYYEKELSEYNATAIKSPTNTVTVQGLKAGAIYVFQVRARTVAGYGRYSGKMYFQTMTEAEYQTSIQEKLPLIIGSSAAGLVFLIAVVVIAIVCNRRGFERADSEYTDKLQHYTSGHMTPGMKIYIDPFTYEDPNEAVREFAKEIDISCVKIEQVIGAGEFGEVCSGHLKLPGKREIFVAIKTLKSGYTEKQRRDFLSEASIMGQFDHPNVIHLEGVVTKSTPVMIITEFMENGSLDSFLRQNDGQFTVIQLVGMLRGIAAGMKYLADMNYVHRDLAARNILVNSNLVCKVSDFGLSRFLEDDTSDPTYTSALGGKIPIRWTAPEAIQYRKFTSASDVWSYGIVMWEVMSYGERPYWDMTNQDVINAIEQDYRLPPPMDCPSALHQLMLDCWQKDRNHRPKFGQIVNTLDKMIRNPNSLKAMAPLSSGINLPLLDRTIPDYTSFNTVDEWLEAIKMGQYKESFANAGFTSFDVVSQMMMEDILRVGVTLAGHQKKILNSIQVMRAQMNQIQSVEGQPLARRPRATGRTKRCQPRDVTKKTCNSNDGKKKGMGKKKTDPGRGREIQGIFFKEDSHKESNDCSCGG
FGFR1, sequence (P11362 whole entry, looked up): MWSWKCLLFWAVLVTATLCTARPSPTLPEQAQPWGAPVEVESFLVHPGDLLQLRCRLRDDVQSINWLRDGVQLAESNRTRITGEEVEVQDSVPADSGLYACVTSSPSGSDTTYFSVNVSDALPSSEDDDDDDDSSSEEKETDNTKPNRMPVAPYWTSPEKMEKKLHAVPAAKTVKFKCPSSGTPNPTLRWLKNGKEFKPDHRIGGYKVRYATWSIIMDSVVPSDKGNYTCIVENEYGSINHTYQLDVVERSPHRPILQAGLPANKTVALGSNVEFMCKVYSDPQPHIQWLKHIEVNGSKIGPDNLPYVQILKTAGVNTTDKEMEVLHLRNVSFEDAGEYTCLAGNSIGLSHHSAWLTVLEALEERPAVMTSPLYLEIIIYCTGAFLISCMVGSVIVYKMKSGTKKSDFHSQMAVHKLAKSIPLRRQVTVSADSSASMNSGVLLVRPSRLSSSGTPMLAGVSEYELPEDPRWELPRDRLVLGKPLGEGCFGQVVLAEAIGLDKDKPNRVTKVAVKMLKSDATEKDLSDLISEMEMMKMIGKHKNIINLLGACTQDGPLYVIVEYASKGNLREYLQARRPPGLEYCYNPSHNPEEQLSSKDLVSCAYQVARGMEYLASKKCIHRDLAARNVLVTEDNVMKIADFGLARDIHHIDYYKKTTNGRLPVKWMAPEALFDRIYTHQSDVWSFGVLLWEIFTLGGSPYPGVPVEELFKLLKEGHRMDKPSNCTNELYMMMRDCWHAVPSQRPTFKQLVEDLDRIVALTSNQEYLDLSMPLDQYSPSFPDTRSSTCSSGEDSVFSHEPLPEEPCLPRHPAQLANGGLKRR
Jak2, sequence (O60674 whole entry, looked up): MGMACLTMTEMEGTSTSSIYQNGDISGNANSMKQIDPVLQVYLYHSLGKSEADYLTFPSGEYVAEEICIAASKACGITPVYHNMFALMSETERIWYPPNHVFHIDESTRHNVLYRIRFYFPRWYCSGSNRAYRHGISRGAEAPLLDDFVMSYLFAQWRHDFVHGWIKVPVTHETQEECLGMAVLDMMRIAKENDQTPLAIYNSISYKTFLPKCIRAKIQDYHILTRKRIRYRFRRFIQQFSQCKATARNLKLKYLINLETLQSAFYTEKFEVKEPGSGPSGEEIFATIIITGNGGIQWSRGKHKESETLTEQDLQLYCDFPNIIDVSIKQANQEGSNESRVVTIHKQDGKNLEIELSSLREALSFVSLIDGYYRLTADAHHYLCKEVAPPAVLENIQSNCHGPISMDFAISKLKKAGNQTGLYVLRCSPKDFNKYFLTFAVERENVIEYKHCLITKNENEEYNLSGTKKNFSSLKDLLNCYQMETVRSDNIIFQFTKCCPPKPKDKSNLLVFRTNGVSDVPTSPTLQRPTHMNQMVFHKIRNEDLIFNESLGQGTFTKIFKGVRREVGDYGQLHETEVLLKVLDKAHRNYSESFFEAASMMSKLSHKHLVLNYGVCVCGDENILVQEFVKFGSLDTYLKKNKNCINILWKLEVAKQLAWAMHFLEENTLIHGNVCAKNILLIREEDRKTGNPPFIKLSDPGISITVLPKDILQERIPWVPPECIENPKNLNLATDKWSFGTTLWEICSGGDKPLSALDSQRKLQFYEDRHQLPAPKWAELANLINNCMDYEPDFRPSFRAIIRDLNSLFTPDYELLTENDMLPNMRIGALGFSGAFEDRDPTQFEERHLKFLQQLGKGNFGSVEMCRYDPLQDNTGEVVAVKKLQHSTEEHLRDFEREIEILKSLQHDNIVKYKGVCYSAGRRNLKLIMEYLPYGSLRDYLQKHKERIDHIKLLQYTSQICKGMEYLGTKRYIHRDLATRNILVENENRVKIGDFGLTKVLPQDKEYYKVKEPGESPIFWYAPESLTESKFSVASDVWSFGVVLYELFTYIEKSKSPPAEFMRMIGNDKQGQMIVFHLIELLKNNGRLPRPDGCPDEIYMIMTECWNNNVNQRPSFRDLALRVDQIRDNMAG
EPHB1, sequence (P54762 whole entry, looked up): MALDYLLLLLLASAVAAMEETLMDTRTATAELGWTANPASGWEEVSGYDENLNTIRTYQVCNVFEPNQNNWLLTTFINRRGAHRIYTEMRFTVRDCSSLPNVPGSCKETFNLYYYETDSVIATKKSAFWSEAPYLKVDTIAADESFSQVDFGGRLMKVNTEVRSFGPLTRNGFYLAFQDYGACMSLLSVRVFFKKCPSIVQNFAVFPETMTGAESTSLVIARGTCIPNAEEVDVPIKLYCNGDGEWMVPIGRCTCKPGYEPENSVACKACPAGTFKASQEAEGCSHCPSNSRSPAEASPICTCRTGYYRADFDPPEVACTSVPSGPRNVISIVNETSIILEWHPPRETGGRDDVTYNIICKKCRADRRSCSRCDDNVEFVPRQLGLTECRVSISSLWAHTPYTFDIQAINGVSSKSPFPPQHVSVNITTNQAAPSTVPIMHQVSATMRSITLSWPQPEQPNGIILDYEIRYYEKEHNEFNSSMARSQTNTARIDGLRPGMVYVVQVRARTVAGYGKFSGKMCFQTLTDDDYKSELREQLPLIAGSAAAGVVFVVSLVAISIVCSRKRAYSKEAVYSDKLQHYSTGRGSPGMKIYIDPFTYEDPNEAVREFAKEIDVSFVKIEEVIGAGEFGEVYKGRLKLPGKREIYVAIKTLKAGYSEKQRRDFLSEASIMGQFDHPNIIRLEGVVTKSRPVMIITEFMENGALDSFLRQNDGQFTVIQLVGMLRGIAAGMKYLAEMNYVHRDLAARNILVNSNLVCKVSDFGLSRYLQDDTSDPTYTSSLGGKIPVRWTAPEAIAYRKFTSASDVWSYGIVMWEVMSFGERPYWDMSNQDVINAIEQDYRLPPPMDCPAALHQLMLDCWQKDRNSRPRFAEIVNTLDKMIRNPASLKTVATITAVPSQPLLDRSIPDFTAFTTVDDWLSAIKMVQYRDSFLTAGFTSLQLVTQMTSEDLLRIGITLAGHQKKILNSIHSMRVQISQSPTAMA

| SH2 binding enrichment (Grb2 SH2) | SH2 binding enrichment (SHP2-C SH2) | SH2 binding enrichment (c-Src SH2) | Sequence | phosphorylation enrichment (Fyn) | phosphorylation enrichment (AncSZ) | phosphorylation enrichment (FGFR3) | phosphorylation enrichment (MERTK) | phosphorylation enrichment (c-Src) | phosphorylation enrichment (EPHB1) | phosphorylation enrichment (Jak2) | phosphorylation enrichment (Fes) | phosphorylation enrichment (Hck) | phosphorylation enrichment (c-Abl (mouse)) | phosphorylation enrichment (FGFR1) | phosphorylation enrichment (EPHB2) | phosphorylation enrichment (Fer (mouse)) |
| --- | --- | --- | --- | --- | --- | --- | --- | --- | --- | --- | --- | --- | --- | --- | --- | --- |
| 1.82 | 1.5 | 1.04 | IKIMGYFIRTI [IDS_Y490_S491F] | 0.402 | 0.932 | 0.785 | 0.514 | 0.424 | 0.432 | 0.93 | 1.08 | 0.497 | 0.813 | 0.479 | 0.561 | 0.547 |
| 0.832 | 0.523 | 0.544 | LKSEMYQKLLK [RGS13_Y146] | 0.56 | 1.34 | 0.845 | 0.348 | 0.425 | 0.709 | 0.92 | 1.18 | 0.78 | 0.733 | 0.749 | 0.925 | 0.456 |
| 1.57 | 1.59 | 2.05 | CTSIHYNFMCN [TP53_Y234_T231S_YF] | 0.516 | 0.848 | 0.571 | 0.366 | 0.447 | 0.54 | 1 | 0.918 | 0.473 | 0.694 | 0.488 | 0.502 | 0.519 |
| 0.782 | 0.743 | 0.506 | ALAQKYHGGGG [HBB_Y146_H144Q] | 0.335 | 0.492 | 0.497 | 0.363 | 0.404 | 0.372 | 0.462 | 0.491 | 0.368 | 0.592 | 0.348 | 0.366 | 0.296 |
| 0.808 | 0.767 | 0.601 | MPQNEYIELHR [NSA2_Y6] | 0.444 | 0.9 | 1.03 | 0.338 | 0.66 | 0.696 | 0.7 | 0.767 | 0.743 | 0.497 | 1.95 | 0.673 | 0.325 |
| 1.54 | 1.67 | 1.39 | CKLCQYYLDHL [ATRX_Y1849_Y1847C] | 0.515 | 0.795 | 0.613 | 0.419 | 1.57 | 0.673 | 0.806 | 0.779 | 0.437 | 0.593 | 0.579 | 0.419 | 0.423 |
| 0.805 | 0.893 | 0.628 | EEKSCYILHSS [PATJ_Y783_E780K] | 0.753 | 1.08 | 0.704 | 0.449 | 0.514 | 0.669 | 0.744 | 1.22 | 0.651 | 0.779 | 0.755 | 0.647 | 0.622 |
| 1.25 | 1.15 | 0.944 | ITNLLYHVVSW [GBA_Y412_G416S] | 3.23 | 1.46 | 7.83 | 7.13 | 3.8 | 8.05 | 3.17 | 1.35 | 4.84 | 3.22 | 9.38 | 5.99 | 5.89 |
